Experimental data taken from the supplement of paper PMC9876800.

Tested on: peptide library, one residue held at a place counted from the S/T acceptor
Assay: relative phosphorylation of the sub-library (ratio to the mean residue at this position); higher = residue favoured
Details: human
Method in brief: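 Relative sub-library phosphorylation, a ratio to the mean residue at that position, was obtained by phosphorimaging and densitometry of spots on streptavidin membranes. Before capture, purified recombinant kinases were incubated for 90 min under kinase-specific conditions with 50 μM biotinylated degenerate peptide sub-libraries and 50 μM ATP spiked with γ-32P-ATP. Each sub-library fixed one residue at one position around a central Ser/Thr.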

Sequence of PHKG2, construct: aa6-293 (P15735 6-293, looked up): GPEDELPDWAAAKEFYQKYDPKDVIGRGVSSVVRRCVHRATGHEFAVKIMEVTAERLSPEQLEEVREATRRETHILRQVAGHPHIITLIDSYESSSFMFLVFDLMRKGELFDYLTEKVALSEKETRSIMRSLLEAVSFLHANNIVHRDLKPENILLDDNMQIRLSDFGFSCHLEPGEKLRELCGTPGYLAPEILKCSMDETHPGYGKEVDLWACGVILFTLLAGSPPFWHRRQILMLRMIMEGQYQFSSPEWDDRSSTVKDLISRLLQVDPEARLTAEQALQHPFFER

PHKG2, construct: aa6-293 (from UniProt P15735)
relative phosphorylation
Details	at +1	at +2	at +3	at +4	at -1	at -2	at -3	at -4	at -5
A fixed	0.436	0.632	0.881	0.674	0.927	0.973	0.741	0.731	0.93
D fixed	0.155	0.214	0.222	0.297	0.609	0.353	0.242	0.326	0.364
E fixed	0.198	0.157	0.301	0.246	0.389	0.466	0.3	0.561	0.38
F fixed	2.96	1.28	1.04	1.21	1.07	0.891	0.368	0.797	1.1
G fixed	0.369	0.579	0.828	0.774	0.977	0.985	0.578	0.833	0.768
H fixed	0.681	1.43	1.12	0.916	0.871	0.867	0.899	1.15	0.999
I fixed	1.63	0.694	0.929	0.743	0.772	0.711	0.562	1.19	1.16
K fixed	0.664	2.43	1.79	1.95	1.84	1.5	3.76	1.84	1.73
L fixed	1.72	0.642	0.976	1.06	0.888	0.853	0.454	0.991	1.26
M fixed	1.77	0.757	0.974	0.885	0.987	1.12	0.576	1.13	0.958
N fixed	0.403	0.694	0.792	0.753	1.15	1.13	0.538	0.849	0.761
P fixed	0.107	0.267	0.616	0.556	1.11	0.528	0.422	0.587	0.706
Q fixed	0.593	0.601	0.851	1.02	0.917	1.72	0.77	0.878	0.776
R fixed	0.997	3.32	2.61	2.71	1.84	2.48	5.1	1.98	1.85
V fixed	0.896	0.574	0.856	0.719	0.9	0.778	0.477	0.922	1.15
W fixed	2.03	1.56	1.2	1.48	0.751	0.861	0.556	0.996	0.926
Y fixed	1.4	1.16	1.01	1.01	0.998	0.795	0.663	1.23	1.19
pThr fixed	0.353	0.302	0.378	0.285	0.558	0.0668	0.449	0.505	0.678
pTyr fixed	0.404	0.369	0.462	0.307	0.755	0.637	0.517	0.746	0.63
